Measurements as given in US20210380994A1, “LACTOCOCCUS LACTIS EXPRESSION SYSTEM FOR DELIVERING PROTEINS EFFICACIOUS FOR THE TREATMENT OF EPITHELIAL BARRIER FUNCTION DISORDERS” (Second Genome, Inc., priority 2018, published 2021).
Read-outs that look alike come from different tables or passages of the source.

Key:
[1] = test system: HCT8 enterocyte and HT29-MTX goblet cell lines; assay: Oris Cell Migration assay (epithelial cell wound healing); type: cell-based, human; conditions: 48 hours; SG-11 1 μg/ml, EGF 30 ng/ml, staurosporine 100 nM; FIG. 2
Description: The 96 well Oris Cell Migration assay containing plugs preventing cell attachment in the center of each well was used according to the manufacturer's instructions (Platypus Technologies. Madison, Wis.).
The migration assay plates were warmed to room temperature prior to use and plugs were removed rom 100% confluence wells prior to cell addition. The HCT8 enterocyte and HT29-MTX goblet cell lines were used at a 9:1 ratio with a total of 5×10^4 total cells added per well (4.5×10^4 HCT8 cells and 0.5×10^4 HT29-MTX cells). Cells were incubated at 37° C.+5% CO2 for 24 hours. Plugs were then removed from all control and sample wells. Control wells included cells treated with the diluent vehicle as the blank, 30 ng/ml epidermal growth factor (EGF) as the positive control, and 100 nM staurosporine as the negative control, all diluted in cRPMI. Sample wells contained SG-11 protein (SEQ ID NO:9) at a concentration of 1 μg/ml diluted in eRPMI. 100% and 0% wells were cultured in cRPMI. […] The green fluorescent viability dye Calcenin AM was added to all wells at a concentration of 0.5 μg/min PBS containing 0.9 mM CaCl2 and 0.5 mM MgCl2, incubated for 30 min at 37° C.+5% CO2, the dye was removed and cells were washed in PBS containing 0.9 mM CaCl2 and 0.5 mM MgCl2, and fluorescence was measured. […] Samples were normalized between 100% and 0% samples and values expressed as a percent growth.

[2] = for Carbamidomethy C147, VDGEICYVSCQNVK (SEQ ID NO: 18) / Carbamidomethy C151, VDGEICYVSCQNVK (SEQ ID NO: 18): artificial carbamidomethylation by iodoacetamide

B1: SG-11: Roseburia hominis protein comprising SEQ ID NO:3; tested as SEQ ID NO:5, SEQ ID NO:7 or FLAG-tagged SEQ ID NO:9 (protein, listed as Rosburia hominis)
chain: LEGEESVVYVGKKGVIASLDVETLDQSYYDETELKSYVDAEVEDYTAEHGKNAVKVESLKVEDGVAKLKMKYKTPEDYTAFNGIELYQGKVVASLAAGYVYDGEFARVEEGKVVGAATKQDIYSEDDLKVAIIRANTDVKVDGEICYVSCQNVKLTGKDSVSIRDGYYLETGSVTASVDVTGQESVGTEQLSGTEQMEMTGEPVNADDTEQTEAAAGDGSFETDVYTFIVYK
With B1 the “percent growth (epithelial cell wound healing)” value [1] was “significant increase in growth”, the “aggregates (SEC-HPLC)” value ([2]; 4° C., 2 weeks, 1 mg/ml) was “low level of aggregates” and the “aggregation (SEC-HPLC)” value ([2]; 37° C., 2 weeks, 1 mg/ml) was “major aggregation occurred”. The “Deamdation N206, GYYLETGSV...TFIVYK (SEQ ID NO: 29)” value (“Deamdation N206 … (SEQ ID NO: 29)” for short) ([2]; 40° C. for two weeks) was 3.62%, the “Deamidation N83, TPEDYTAFNGIELYQGX (SEQ ID NO: 26)” value ([2]; 40° C. for two weeks) was 99.88% and the “Deamidation N83 Deamidation Q89, TPEDYTAFNGIELYQGX (SEQ ID NO: 26)” value ([2]; 40° C. for two weeks) was 0.12%. For the same molecule, the “Deamidation N137, ANTDVK (SEQ ID NO: 27)” value ([2]; 40° C. for two weeks) was 14.61%, the “Deamidation N153, VDGEICYVSCQNVK (SEQ ID NO: 18)” value ([2]; 40° C. for two weeks) was 0% and the “Deamidation Q30, GVIASLDVETLDQSYYDETELK (SEQ ID NO: 25)” value (shortened to “Deamidation Q30 … (SEQ ID NO: 25)”) ([2]; 40° C. for two weeks) was 0.09%. The “Deamidation Q152 Deamidation N153 Carbamidomethy C151, VDGEICYVSCQNVK (SEQ ID NO: 18)” value ([2]; 40° C. for two weeks) was 3.1%, the “No modification, ANTDVK (SEQ ID NO: 27)” value ([2]; 40° C. for two weeks) was 85.39% and the “No modification, GVIASLDVETLDQSYYDETELK (SEQ ID NO: 25)” value (“No modification … (SEQ ID NO: 25)” below) ([2]; 40° C. for two weeks) was 99.91%. For the same molecule, the “No modification, GYYLETGSVTASVDVTGQESVGTEQLSGTEQMEMTGEPVNADDTEQTEAAAGDGSFETDVYTFIVYK (SEQ ID NO: 29)” value ([2]; 40° C. for two weeks) was 96.38%, the “No modification, MLEGEESVVYVGK (SEQ ID NO: 24)” value (from here on “No modification, MLEGEESVVYVGK”) ([2]; 40° C. for two weeks) was 99.82% and the “No modification, TPEDYTAFNGIELYQGX (SEQ ID NO: 26)” value (from here on “No modification, TPEDYTAFNGIELYQGX”) ([2]; 40° C. for two weeks) was 0%. For the same molecule, the “No modification, VDGEICYVSCQNVK (SEQ ID NO: 18)” value (from here on “No modification, VDGEICYVSCQNVK”) ([2]; 40° C. for two weeks) was 44.85%, the “Oxidation M2.00, GYYLETGSV...TFIVYK (SEQ ID NO: 29)” value ([2]; 40° C. for two weeks) was 0% and the “Oxidation M198, GYYLETGSV...TFIVYK (SEQ ID NO: 29)” value (shortened to “Oxidation M198 … (SEQ ID NO: 29)”) ([2]; 40° C. for two weeks) was 0%. The “Oxidation of M, MLEGEESVVYVGK (SEQ ID NO: 24)” value (shortened to “Oxidation … (SEQ ID NO: 24)”) ([2]; 40° C. for two weeks) was 0.18%, the “Carbamidomethy C147, VDGEICYVSCQNVK (SEQ ID NO: 18)” value ([2]; 40° C. for two weeks) was 33.59% and the “Carbamidomethy C151, VDGEICYVSCQNVK (SEQ ID NO: 18)” value ([2]; 40° C. for two weeks) was 18.45%. The Observation of solution ([2]; Freeze and thaw (6 cycles) −80° C. to room temperature) was “clear”, the Observation of solution ([2]; Mechanical stress: 350 rpm shake, 4° C., 24 hr) was “clear” and the “Deamdation N206 … (SEQ ID NO: 29)” value ([2]; No treatment) was 0%. The “Deamidation N53, NAVK (SEQ ID NO 30)” value ([2]; No treatment) was 7.84%, the “Deamidation N83, TPEDYTAFNGIELYQGX (SEQ ID NO: 26)” value ([2]; No treatment) was 17.43% and the “Deamidation N83 Deamidation Q89, TPEDYTAFNGIELYQGX (SEQ ID NO: 26)” value ([2]; No treatment) was 0%. The “Deamidation N137, ANTDVK (SEQ ID NO: 27)” value ([2]; No treatment) was 1.04%, the “Deamidation N153, VDGEICYVSCQNVK (SEQ ID NO: 18)” value ([2]; No treatment) was 0.02% and the “Deamidation Q30 … (SEQ ID NO: 25)” value ([2]; No treatment) was 0%. The “Deamidation Q152 Deamidation N153 Carbamidomethy C151, VDGEICYVSCQNVK (SEQ ID NO: 18)” value ([2]; No treatment) was 0%, the “No modification, ANTDVK (SEQ ID NO: 27)” value ([2]; No treatment) was 98.96% and the “No modification … (SEQ ID NO: 25)” value ([2]; No treatment) was 100%. For the same molecule, the “No modification, GYYLETGSV...TFIVYK (SEQ ID NO: 29)” value (from here on “No modification, GYYLETGSV...TFIVYK”) ([2]; No treatment) was 100%, the “No modification, MLEGEESVVYVGK” value ([2]; No treatment) was 99.78% and the “No modification, TPEDYTAFNGIELYQGX” value ([2]; No treatment) was 82.57%. The “No modification, VDGEICYVSCQNVK” value ([2]; No treatment) was 99.98%, the “Oxidation M2.00, GYYLETGSV...TFIVYK (SEQ ID NO: 29)” value ([2]; No treatment) was 0% and the “Oxidation M198 … (SEQ ID NO: 29)” value ([2]; No treatment) was 0%. The “Oxidation … (SEQ ID NO: 24)” value ([2]; No treatment) was 0.22%, the “Deamdation N206 … (SEQ ID NO: 29)” value ([2]; Oxidation (H2O2)) was 0% and the “Deamidation N83, TPEDYTAFNGIELYQGX (SEQ ID NO: 26)” value ([2]; Oxidation (H2O2)) was 37%. For the same molecule, the “Deamidation N83 Deamidation Q89, TPEDYTAFNGIELYQGX (SEQ ID NO: 26)” value ([2]; Oxidation (H2O2)) was 0%, the “Deamidation N137, ANTDVK (SEQ ID NO: 27)” value ([2]; Oxidation (H2O2)) was 16.44% and the “Deamidation N153, VDGEICYVSCQNVK (SEQ ID NO: 18)” value ([2]; Oxidation (H2O2)) was 0%. For the same molecule, the “Deamidation Q30 … (SEQ ID NO: 25)” value ([2]; Oxidation (H2O2)) was 0.07%, the “Deamidation Q152 Deamidation N153 Carbamidomethy C151, VDGEICYVSCQNVK (SEQ ID NO: 18)” value ([2]; Oxidation (H2O2)) was 0.31% and the “No modification, ANTDVK (SEQ ID NO: 27)” value ([2]; Oxidation (H2O2)) was 83.56%. For the same molecule, the “No modification … (SEQ ID NO: 25)” value ([2]; Oxidation (H2O2)) was 99.93%, the “No modification, GYYLETGSV...TFIVYK” value ([2]; Oxidation (H2O2)) was 19.17% and the “No modification, MLEGEESVVYVGK” value ([2]; Oxidation (H2O2)) was 99.88%. For the same molecule, the “No modification, TPEDYTAFNGIELYQGX” value ([2]; Oxidation (H2O2)) was 63%, the “No modification, VDGEICYVSCQNVK” value ([2]; Oxidation (H2O2)) was 63.23% and the “Oxidation M2.00, GYYLETGSV...TFIVYK (SEQ ID NO: 29)” value ([2]; Oxidation (H2O2)) was 63.9%. The “Oxidation M198 … (SEQ ID NO: 29)” value ([2]; Oxidation (H2O2)) was 16.92%, the “Oxidation … (SEQ ID NO: 24)” value ([2]; Oxidation (H2O2)) was 0.12% and the “Carbamidomethy C147, VDGEICYVSCQNVK (SEQ ID NO: 18)” value ([2]; Oxidation (H2O2)) was 34.52%. The “Carbamidomethy C151, VDGEICYVSCQNVK (SEQ ID NO: 18)” value ([2]; Oxidation (H2O2)) was 1.93%, the Observation of solution ([2]; Oxidation: Hydroperoxide (0.005%) 40° C., 16 hr) was “clear” and the Observation of solution ([2]; Temperature (2 weeks) 4° C.) was “clear”. For the same molecule, the Observation of solution ([2]; Temperature (2 weeks) 25° C.) was “clear”, the Observation of solution ([2]; Temperature (2 weeks) 37° C.) was “clear” and the Observation of solution ([2]; Temperature (2 weeks) 40° C.) was “clear”. The Observation of solution ([2]; pH 4 and pH 9) was “clear”, the “Deamdation N206 … (SEQ ID NO: 29)” value ([2]; pH 9) was 11.84% and the “Deamidation N83, TPEDYTAFNGIELYQGX (SEQ ID NO: 26)” value ([2]; pH 9) was 19.1%. The “Deamidation N83 Deamidation Q89, TPEDYTAFNGIELYQGX (SEQ ID NO: 26)” value ([2]; pH 9) was 0%, the “Deamidation N137, ANTDVK (SEQ ID NO: 27)” value ([2]; pH 9) was 23.95% and the “Deamidation N153, VDGEICYVSCQNVK (SEQ ID NO: 18)” value ([2]; pH 9) was 0.35%. For the same molecule, the “Deamidation Q30 … (SEQ ID NO: 25)” value ([2]; pH 9) was 0.05%, the “Deamidation Q152 Deamidation N153 Carbamidomethy C151, VDGEICYVSCQNVK (SEQ ID NO: 18)” value ([2]; pH 9) was 28% and the “No modification, ANTDVK (SEQ ID NO: 27)” value ([2]; pH 9) was 76.05%. The “No modification … (SEQ ID NO: 25)” value ([2]; pH 9) was 99.95%, the “No modification, GYYLETGSV...TFIVYK” value ([2]; pH 9) was 88.16% and the “No modification, MLEGEESVVYVGK” value ([2]; pH 9) was 99.94%. The “No modification, TPEDYTAFNGIELYQGX” value ([2]; pH 9) was 80.9%, the “No modification, VDGEICYVSCQNVK” value ([2]; pH 9) was 8.76% and the “Oxidation M2.00, GYYLETGSV...TFIVYK (SEQ ID NO: 29)” value ([2]; pH 9) was 0%. For the same molecule, the “Oxidation M198 … (SEQ ID NO: 29)” value ([2]; pH 9) was 0%, the “Oxidation … (SEQ ID NO: 24)” value ([2]; pH 9) was 0.61% and the “Carbamidomethy C147, VDGEICYVSCQNVK (SEQ ID NO: 18)” value ([2]; pH 9) was 71.71%. For the same molecule, the “Carbamidomethy C151, VDGEICYVSCQNVK (SEQ ID NO: 18)” value ([2]; pH 9) was 12.45% and the “cleavage by trypsin (SDS-PAGE)” value (trypsin) was “a predominant band is generated in the presence of trypsin”.
